B1: HNF4A (parent)
chain: RFSRQCVVDKDKRNQCRYCRLKKC

Variants of: B1
Assay: protein stability index of a GFP-peptide fusion (GPS, HEK-293T) (PSI 1-6); higher = more stable
Details: c terminus: a fixed tail appended
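Also: lentivirally expressed fusions sorted by FACS into six bins by GFP to DsRed ratio, PSI derived from sequencing read proportions per bin multiplied by bin number.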

Variant | protein stability index
Y18P | 3
Y18C | 3.61
Y18K | 3.73
Y18T | 3.2
Y18Q | 3.54
Y18E | 3.41
Y18F | 2.63
Y18G | 3.04
Y18H | 3.64
Y18A | 2.2
Y18S | 3.69
Y18I | 3.54
R20E | 2.84
R20Y | 2.28
R20K | 2.58
R20I | 2.42
R20P | 3.15
R20H | 1.58
R20A | 2.96
R20C | 2.24
R20G | 3.23
R20V | 2.56
R20T | 2.74
R20L | 2.35

Variant | protein stability index
R20Q | 2.98
R20S | 2.72
R20W | 1.43
R20N | 2.62
F2A | 3.77
F2N | 3.39
F2M | 2.89
F2D | 3.45
F2H | 3.34
F2E | 3.6
F2L | 3.06
F2R | 3.37
F2W | 2.37
F2I | 2.39
F2G | 2.96
F2V | 2.37
F2P | 3.45
F2S | 4.23
F2T | 3.08
V8K | 2.86
V8C | 3.21
V8P | 2.38
V8F | 2.38
V8H | 3.87

Variant | protein stability index
V8Y | 2.98
V8N | 1.86
V8Q | 2.66
V8E | 2.19
V8R | 3.24
V8T | 2.6
V8M | 2.56
V8A | 2
V8W | 2.4
V8D | 2.8
V8S | 2.48
K22F | 1.8
K22Y | 1.98
K22G | 2.27
K22I | 1.73
K22P | 2.12
K22M | 1.56
K22L | 2.57
K22H | 1.71
K22D | 2.13
K22T | 2.13
K22Q | 1.79
K22E | 1.54
K22C | 2.66

Variant | protein stability index
K22R | 2.9
K22S | 2.73
C19N | 3.71
C19D | 4.09
C19P | 3.13
C19T | 2.99
C19F | 2.39
C19Q | 3.73
C19S | 3.65
C19L | 3.07
C19V | 2.95
C19A | 3.07
C19G | 3.04
C19H | 3.07
K12N | 2.41
K12V | 1.99
K12F | 2.25
K12W | 2.28
K12P | 2.76
K12H | 2.93
K12T | 2.85
K12Y | 2.25
K12I | 2.54
K12C | 2.07

Variant | protein stability index
K12L | 1.91
K12D | 2.13
K12S | 2
K12A | 1.51
K12G | 2.76
C16Y | 3.48
C16L | 2.92
C16E | 4.05
C16W | 3.37
C16K | 3.1
C16S | 3.52
C16F | 2.97
C16I | 2.93
C16P | 3.58
C16V | 3.33
C16G | 2.61
C16T | 3.56
C16N | 3.31
C16Q | 3.38
K10W | 2.59
K10G | 2.55
K10M | 2.9
K10T | 2.41
K10C | 2.25

Variant | protein stability index
K10R | 2.78
K10V | 2.47
K10E | 2.14
K10L | 2.37
K10H | 2.79
K10F | 1.98
K10N | 2.43
K10A | 1.7
S3Y | 2.95
S3P | 3.26
S3G | 2.34
S3N | 2.76
S3H | 2.7
S3D | 2.58
S3A | 2.59
S3K | 3.33
S3T | 2.67
S3Q | 2.5
S3W | 1.52
D9P | 2.48
D9H | 3.9
D9W | 1.68
D9Y | 2.33
D9G | 3.04

Variant | protein stability index
D9S | 2.92
D9R | 3.01
D9I | 2.12
D9V | 2.33
D9C | 2.69
D9F | 2.13
D9Q | 2.78
D9L | 1.92
D9M | 3.42
D9N | 2.67
D9T | 2.27
D9K | 2.13
C24E | 1.01
C24Y | 2.77
C24K | 2.62
C24F | 2.55
C24I | 2.93
C24T | 3.08
C24G | 2.41
C24A | 3.01
C24H | 2.77
C24R | 2.42
C24N | 2.89
C24V | 2.34

Variant | protein stability index
K23D | 1.65
K23W | 2.05
K23V | 2.04
K23S | 1.41
K23P | 1.74
K23I | 1.68
K23H | 2.4
K23A | 1.89
K23G | 2.15
K23M | 3.12
K23T | 2.37
K23Y | 2.24
K23F | 2.67
L21F | 2.86
L21Q | 3.64
L21P | 2.94
L21W | 2.94
L21N | 3.33
L21E | 3.08
L21I | 3.22
L21D | 3.35
L21A | 3.51
L21H | 3.41
L21V | 2.31

Variant | protein stability index
L21G | 2.94
L21K | 4.07
R4T | 1.62
R4E | 2.6
R4H | 3.57
R4M | 2.91
R4N | 2.53
R4W | 2.4
R4V | 2.59
R4G | 2.6
R4Q | 2.8
R4L | 1.79
R4D | 2.27
R4I | 1.85
R4F | 1.9
Q15L | 2.78
Q15P | 2.21
Q15T | 2.68
Q15A | 2.47
Q15G | 2.37
Q15D | 2.89
Q15F | 2.12
Q15H | 1.96
Q15E | 2.34

Variant | protein stability index
Q15K | 2.85
Q15R | 2.73
Q15Y | 2.48
Q15S | 2.79
R17T | 2.69
R17N | 3.45
R17M | 2.79
R17V | 2.21
R17S | 2.4
R17G | 3.16
R17Y | 2.21
R17K | 2.54
R17I | 2.9
R17Q | 3.42
R17L | 1.84
R17F | 2.57
R17H | 2.83
R17A | 2.77
R17C | 2.29
R17D | 3.29
V7N | 2.21
V7R | 2.4
V7W | 2.47
V7H | 2.38

Variant | protein stability index
V7Q | 2.05
V7K | 2.6
V7G | 2.37
V7L | 2.48
V7F | 1.94
V7P | 2.96
V7S | 2.1
V7A | 2.4
V7I | 2.13
Q5D | 2.3
Q5E | 3.29
Q5Y | 2.22
Q5W | 2.4
Q5P | 2.39
Q5T | 2.16
Q5G | 2.38
Q5R | 2.83
Q5I | 2.16
Q5S | 2.96
Q5K | 2.43
Q5N | 2.6
Q5M | 3.11
Q5V | 2.26
Q5H | 2.5

Variant | protein stability index
R13C | 3.06
R13Y | 2.76
R13T | 2.99
R13S | 2.65
R13D | 3.2
R13G | 2.21
R13E | 2.02
R13I | 2.38
R13K | 2.4
R13W | 1.93
R13V | 2.7
R13H | 2.98
R13A | 2.11
R13N | 3.03
R13Q | 2.83
N14F | 2.16
N14K | 2.23
N14H | 3.45
N14T | 2.31
N14I | 2.39
N14G | 2.57
N14M | 1.98
N14L | 2.87
N14A | 1.5

Variant | protein stability index
N14S | 2.96
N14P | 2.72
N14W | 2.27
N14Q | 2.18
D11R | 2.65
D11Y | 2.45
D11H | 2.97
D11P | 2.9
D11C | 3.51
D11Q | 2.63
D11I | 2.41
D11M | 2.65
D11V | 2.37
D11A | 2.28
D11S | 2.04
D11G | 2.55
D11K | 2.4
D11L | 2.21
R1Q | 2.66
R1E | 3.43
R1V | 1.53
R1K | 2.4
R1L | 2.31
R1T | 2.24

Variant | protein stability index
R1D | 2.59
R1F | 1.94
R1N | 2.44
R1C | 2.95
R1G | 2.64
R1P | 2.5
R1M | 1.54
C6R | 2.6
C6M | 2
C6L | 1.99
C6D | 2.47
C6H | 2.77
C6S | 2.72
C6F | 2.89
C6N | 2.86
C6I | 2.33
C6G | 2.87
C6E | 2.82
C6K | 3.17
C6A | 3.24
C6Q | 3.36
C6T | 2.29

— the supplement of paper PMC10567573
